Target: human IgE myeloma protein (American Biosystems, Inc. cat. no. A113) (human)
Assay: ELISA negative control run with each assay (human IgE ELISA and peptide ELISAs)

Chain of human IgE myeloma protein (American Biosystems, Inc. cat. no. A113) (human) (heavy, as listed by the source): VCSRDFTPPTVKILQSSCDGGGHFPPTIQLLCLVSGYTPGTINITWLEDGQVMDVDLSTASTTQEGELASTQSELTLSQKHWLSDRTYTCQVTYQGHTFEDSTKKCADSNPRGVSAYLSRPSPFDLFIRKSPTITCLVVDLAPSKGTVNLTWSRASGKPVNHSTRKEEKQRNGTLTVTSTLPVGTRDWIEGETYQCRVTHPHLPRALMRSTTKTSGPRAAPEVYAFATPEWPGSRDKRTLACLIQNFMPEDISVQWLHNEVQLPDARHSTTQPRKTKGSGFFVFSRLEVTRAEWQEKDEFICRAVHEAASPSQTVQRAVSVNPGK

- A492: < 0.15 A492
Substance: diluted normal guinea pig control samples (antibody)
